Target: CXCR4 (C-X-C chemokine receptor type 4) (UniProt P61073 1-352, limits assumed)
Assay: cell-based or functional assay

CXCR4 (C-X-C chemokine receptor type 4), sequence (P61073 whole entry): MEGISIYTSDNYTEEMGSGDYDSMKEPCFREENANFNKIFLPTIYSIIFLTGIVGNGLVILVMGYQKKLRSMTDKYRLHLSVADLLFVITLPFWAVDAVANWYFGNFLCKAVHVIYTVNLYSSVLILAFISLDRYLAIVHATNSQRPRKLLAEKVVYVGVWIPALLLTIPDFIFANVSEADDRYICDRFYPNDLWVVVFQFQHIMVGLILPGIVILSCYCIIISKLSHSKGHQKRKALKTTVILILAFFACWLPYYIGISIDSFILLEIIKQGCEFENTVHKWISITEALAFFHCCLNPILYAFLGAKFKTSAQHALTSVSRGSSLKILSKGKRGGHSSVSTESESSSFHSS

Row | Binder | IC50 (nM), cytotoxicity, Ramos (CXCR4+) cells, CellTiter-Glo, 4 days | IC50 (nM), cytotoxicity, Jurkat (CXCR4+) cells, CellTiter-Glo, 4 days
1 | anti-CXCR4 IgG antibody HLCX (antibody, V domains shown) VH: QVQLVESGGGLVQPGGSLRLSCAASGFNIKDTYIHWVRQAPGKGLEWVARIYPTNGYTRYADSVKGRFTISADTSKNTAYLQMNSLRAEDTAVYYCSRETKKYQSYRKCRGGRRWCYQKSYTYNYEDYWGQGTLVTVSS VL: not shown | 89.4 nM | –
2 | anti-CXCR4-ValCit-MMAE conjugate (antibody, human IgG1, kappa, V domains shown, auristatin on a Val-Cit linker coupled by NHS ester to surface-exposed lysine residues, non-specific; estimated DAR ~2-3) VH: QVQLVESGGGLVQPGGSLRLSCAASGFNIKDTYIHWVRQAPGKGLEWVARIYPTNGYTRYADSVKGRFTISADTSKNTAYLQMNSLRAEDTAVYYCSRETKKYQSYRKCRGGRRWCYQKSYTYNYEDYWGQGTLVTVSS VL: not shown | 2 nM | 9.2 nM
3 | anti-CXCR4-NC-MMAE conjugate (antibody, human IgG1, kappa, V domains shown, MMAE on a non-cleavable linker coupled by NHS ester to surface-exposed lysine residues, non-specific; estimated DAR ~2-3) VH: QVQLVESGGGLVQPGGSLRLSCAASGFNIKDTYIHWVRQAPGKGLEWVARIYPTNGYTRYADSVKGRFTISADTSKNTAYLQMNSLRAEDTAVYYCSRETKKYQSYRKCRGGRRWCYQKSYTYNYEDYWGQGTLVTVSS VL: not shown | 0.89 nM | 4.6 nM

Reference: patent US20170014524A1 (CALIFORNIA INSTITUTE FOR BIOMEDICAL RESEARCH, published 2017)
